Laboratory results published in patent US20210179693A1 (Xencor, published 2021).

These binders were tested against T1, human FcRn (His-tagged alpha chain with beta 2 microglobulin) (human, UniProt P55899 24-297; P61769 21-119, limits assumed) (assay: Biacore, human FcRn on chip, pH 6.0).
T1 construct: also called hFcRn; not shown: His tag

Row | fold FcRn binding | fold FcRn binding relative to WT IgG2 | binding result | Binder
1 | 4.9 fold | – | – | anti-VEGF IgG2 N434S (antibody) heavy: EVQLVESGGGLVQPGGSLRLSCAASGYTFTNYGMNWVRQAPGKGLEWVGWINTYTGEPTYAADFKRRFTFSLDTSKSTAYLQMNSLRAEDTAVYYCAKYPHYYGSSHWYFDVWGQGTLVTVSSASTKGPSVFPLAPCSRSTSESTAALGCLVKDYFPEPVTVSWNSGALTSGVHTFPAVLQSSGLYSLSSVVTVPSSNFGTQTYTCNVDHKPSNTKVDKTVERKCCVECPPCPAPPVAGPSVFLFPPKPKDTLMISRTPEVTCVVVDVSHEDPEVQFNWYVDGVEVHNAKTKPREEQFNSTFRVVSVLTVVHQDWLNGKEYKCKVSNKGLPAPIEKTISKTKGQPREPQVYTLPPSREEMTKNQVSLTCLVKGFYPSDIAVEWESNGQPENNYKTTPPMLDSDGSFFLYSKLTVDKSRWQQGNVFSCSVMHEALHSHYTQKSLSLSPGK light: not shown
2 | – | < 0.5 fold | – | anti-VEGF IgG2 N434P (antibody) heavy: EVQLVESGGGLVQPGGSLRLSCAASGYTFTNYGMNWVRQAPGKGLEWVGWINTYTGEPTYAADFKRRFTFSLDTSKSTAYLQMNSLRAEDTAVYYCAKYPHYYGSSHWYFDVWGQGTLVTVSSASTKGPSVFPLAPCSRSTSESTAALGCLVKDYFPEPVTVSWNSGALTSGVHTFPAVLQSSGLYSLSSVVTVPSSNFGTQTYTCNVDHKPSNTKVDKTVERKCCVECPPCPAPPVAGPSVFLFPPKPKDTLMISRTPEVTCVVVDVSHEDPEVQFNWYVDGVEVHNAKTKPREEQFNSTFRVVSVLTVVHQDWLNGKEYKCKVSNKGLPAPIEKTISKTKGQPREPQVYTLPPSREEMTKNQVSLTCLVKGFYPSDIAVEWESNGQPENNYKTTPPMLDSDGSFFLYSKLTVDKSRWQQGNVFSCSVMHEALHPHYTQKSLSLSPGK light: not shown
3 | – | < 0.5 fold | – | anti-VEGF IgG2 N434V (antibody, also called 434V in IgG2) heavy: EVQLVESGGGLVQPGGSLRLSCAASGYTFTNYGMNWVRQAPGKGLEWVGWINTYTGEPTYAADFKRRFTFSLDTSKSTAYLQMNSLRAEDTAVYYCAKYPHYYGSSHWYFDVWGQGTLVTVSSASTKGPSVFPLAPCSRSTSESTAALGCLVKDYFPEPVTVSWNSGALTSGVHTFPAVLQSSGLYSLSSVVTVPSSNFGTQTYTCNVDHKPSNTKVDKTVERKCCVECPPCPAPPVAGPSVFLFPPKPKDTLMISRTPEVTCVVVDVSHEDPEVQFNWYVDGVEVHNAKTKPREEQFNSTFRVVSVLTVVHQDWLNGKEYKCKVSNKGLPAPIEKTISKTKGQPREPQVYTLPPSREEMTKNQVSLTCLVKGFYPSDIAVEWESNGQPENNYKTTPPMLDSDGSFFLYSKLTVDKSRWQQGNVFSCSVMHEALHVHYTQKSLSLSPGK light: not shown
4 | – | < 0.5 fold | – | anti-VEGF IgG2 N434D (antibody) heavy: EVQLVESGGGLVQPGGSLRLSCAASGYTFTNYGMNWVRQAPGKGLEWVGWINTYTGEPTYAADFKRRFTFSLDTSKSTAYLQMNSLRAEDTAVYYCAKYPHYYGSSHWYFDVWGQGTLVTVSSASTKGPSVFPLAPCSRSTSESTAALGCLVKDYFPEPVTVSWNSGALTSGVHTFPAVLQSSGLYSLSSVVTVPSSNFGTQTYTCNVDHKPSNTKVDKTVERKCCVECPPCPAPPVAGPSVFLFPPKPKDTLMISRTPEVTCVVVDVSHEDPEVQFNWYVDGVEVHNAKTKPREEQFNSTFRVVSVLTVVHQDWLNGKEYKCKVSNKGLPAPIEKTISKTKGQPREPQVYTLPPSREEMTKNQVSLTCLVKGFYPSDIAVEWESNGQPENNYKTTPPMLDSDGSFFLYSKLTVDKSRWQQGNVFSCSVMHEALHDHYTQKSLSLSPGK light: not shown
5 | – | < 0.5 fold | – | anti-VEGF IgG2 N434K (antibody) heavy: EVQLVESGGGLVQPGGSLRLSCAASGYTFTNYGMNWVRQAPGKGLEWVGWINTYTGEPTYAADFKRRFTFSLDTSKSTAYLQMNSLRAEDTAVYYCAKYPHYYGSSHWYFDVWGQGTLVTVSSASTKGPSVFPLAPCSRSTSESTAALGCLVKDYFPEPVTVSWNSGALTSGVHTFPAVLQSSGLYSLSSVVTVPSSNFGTQTYTCNVDHKPSNTKVDKTVERKCCVECPPCPAPPVAGPSVFLFPPKPKDTLMISRTPEVTCVVVDVSHEDPEVQFNWYVDGVEVHNAKTKPREEQFNSTFRVVSVLTVVHQDWLNGKEYKCKVSNKGLPAPIEKTISKTKGQPREPQVYTLPPSREEMTKNQVSLTCLVKGFYPSDIAVEWESNGQPENNYKTTPPMLDSDGSFFLYSKLTVDKSRWQQGNVFSCSVMHEALHKHYTQKSLSLSPGK light: not shown
6 | – | < 0.5 fold | – | anti-VEGF IgG2 N434R (antibody) heavy: EVQLVESGGGLVQPGGSLRLSCAASGYTFTNYGMNWVRQAPGKGLEWVGWINTYTGEPTYAADFKRRFTFSLDTSKSTAYLQMNSLRAEDTAVYYCAKYPHYYGSSHWYFDVWGQGTLVTVSSASTKGPSVFPLAPCSRSTSESTAALGCLVKDYFPEPVTVSWNSGALTSGVHTFPAVLQSSGLYSLSSVVTVPSSNFGTQTYTCNVDHKPSNTKVDKTVERKCCVECPPCPAPPVAGPSVFLFPPKPKDTLMISRTPEVTCVVVDVSHEDPEVQFNWYVDGVEVHNAKTKPREEQFNSTFRVVSVLTVVHQDWLNGKEYKCKVSNKGLPAPIEKTISKTKGQPREPQVYTLPPSREEMTKNQVSLTCLVKGFYPSDIAVEWESNGQPENNYKTTPPMLDSDGSFFLYSKLTVDKSRWQQGNVFSCSVMHEALHRHYTQKSLSLSPGK light: not shown
7 | – | – | binds | anti-VEGF IgG2 N434T (antibody) heavy: EVQLVESGGGLVQPGGSLRLSCAASGYTFTNYGMNWVRQAPGKGLEWVGWINTYTGEPTYAADFKRRFTFSLDTSKSTAYLQMNSLRAEDTAVYYCAKYPHYYGSSHWYFDVWGQGTLVTVSSASTKGPSVFPLAPCSRSTSESTAALGCLVKDYFPEPVTVSWNSGALTSGVHTFPAVLQSSGLYSLSSVVTVPSSNFGTQTYTCNVDHKPSNTKVDKTVERKCCVECPPCPAPPVAGPSVFLFPPKPKDTLMISRTPEVTCVVVDVSHEDPEVQFNWYVDGVEVHNAKTKPREEQFNSTFRVVSVLTVVHQDWLNGKEYKCKVSNKGLPAPIEKTISKTKGQPREPQVYTLPPSREEMTKNQVSLTCLVKGFYPSDIAVEWESNGQPENNYKTTPPMLDSDGSFFLYSKLTVDKSRWQQGNVFSCSVMHEALHTHYTQKSLSLSPGK light: not shown
8 | – | < 0.5 fold | – | anti-VEGF IgG2 N434E (antibody) heavy: EVQLVESGGGLVQPGGSLRLSCAASGYTFTNYGMNWVRQAPGKGLEWVGWINTYTGEPTYAADFKRRFTFSLDTSKSTAYLQMNSLRAEDTAVYYCAKYPHYYGSSHWYFDVWGQGTLVTVSSASTKGPSVFPLAPCSRSTSESTAALGCLVKDYFPEPVTVSWNSGALTSGVHTFPAVLQSSGLYSLSSVVTVPSSNFGTQTYTCNVDHKPSNTKVDKTVERKCCVECPPCPAPPVAGPSVFLFPPKPKDTLMISRTPEVTCVVVDVSHEDPEVQFNWYVDGVEVHNAKTKPREEQFNSTFRVVSVLTVVHQDWLNGKEYKCKVSNKGLPAPIEKTISKTKGQPREPQVYTLPPSREEMTKNQVSLTCLVKGFYPSDIAVEWESNGQPENNYKTTPPMLDSDGSFFLYSKLTVDKSRWQQGNVFSCSVMHEALHEHYTQKSLSLSPGK light: not shown
9 | 14.8 fold | – | – | anti-VEGF IgG2 M428L/N434S (antibody) heavy: EVQLVESGGGLVQPGGSLRLSCAASGYTFTNYGMNWVRQAPGKGLEWVGWINTYTGEPTYAADFKRRFTFSLDTSKSTAYLQMNSLRAEDTAVYYCAKYPHYYGSSHWYFDVWGQGTLVTVSSASTKGPSVFPLAPCSRSTSESTAALGCLVKDYFPEPVTVSWNSGALTSGVHTFPAVLQSSGLYSLSSVVTVPSSNFGTQTYTCNVDHKPSNTKVDKTVERKCCVECPPCPAPPVAGPSVFLFPPKPKDTLMISRTPEVTCVVVDVSHEDPEVQFNWYVDGVEVHNAKTKPREEQFNSTFRVVSVLTVVHQDWLNGKEYKCKVSNKGLPAPIEKTISKTKGQPREPQVYTLPPSREEMTKNQVSLTCLVKGFYPSDIAVEWESNGQPENNYKTTPPMLDSDGSFFLYSKLTVDKSRWQQGNVFSCSVLHEALHSHYTQKSLSLSPGK light: not shown
